Measurements as given in PMC10562560, “Molecular basis for cellular retinoic acid-binding protein 1 in modulating CaMKII activation” (Frontiers in Molecular Biosciences, 2023).

Experiments:
[1] = target: His-tagged CRABP1 R29A (Mus musculus); experiment: pull-down; purified His-CRABP1 (WT or mutant, 5 uM) held on Ni-NTA resin as bait; 250 ug pre-cleared lysate of HEK293T cells expressing GFP-CaMKII (DMSO or ionomycin 10 uM, 10 min) as prey; 50 mM Tris pH 8.0, 150 mM NaCl, 0.2% NP-40, 20% glycerol, 200 mM imidazole, overnight at 4°C; Western blot with anti-GFP and anti-His; densitometry gives the CCI (n = 5)
[2] = target: His-tagged CRABP1 T96A (Mus musculus); experiment: as above
[3] = target: His-tagged CRABP1 H94A (Mus musculus); experiment: as above
[4] = target: T1, 15N-labeled wild-type cellular retinoic acid-binding protein 1 (CRABP1) (Mus musculus, UniProt P62965 2-137, 15N-labeled); experiment: NMR titration; 15N-1H HSQC of 15N-labeled CRABP1 (19 uM) without and with CaMK-R peptide (200 uM); 30 mM d11-Tris-d3-acetate pH 6.2, 75 mM Na2SO4, 10 uM ZnCl2, 1 mM TCEP, 30°C; conditions: both partners purified
T1 construct: also called 15N-labeled CRABP1; 15N WT CRABP1; source: expressed and purified as described in Park et al. (2019); SEC
T1 sequence (P62965 2-137): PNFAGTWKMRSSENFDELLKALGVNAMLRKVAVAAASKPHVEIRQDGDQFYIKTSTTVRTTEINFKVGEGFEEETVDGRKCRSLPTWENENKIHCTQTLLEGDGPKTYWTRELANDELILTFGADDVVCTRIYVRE

GFP-CaMKII beta, inactive (from vehicle-treated HEK293T cells) (from UniProt P08413 1-542) (cell lysate)
CRABP1–CaMKII Complex Index (CCI; ratio of inactive to active CaMKII pulled down) [1]: 1

GFP-CaMKII beta, inactive (from vehicle-treated HEK293T cells) (from UniProt P08413 1-542) (enzyme)
CRABP1–CaMKII Complex Index (CCI; ratio of inactive to active CaMKII pulled down) [2]: 1
CRABP1–CaMKII Complex Index (CCI; ratio of inactive to active CaMKII pulled down) [3]: 1

B1: CaMK-R peptide (29-residue peptide, residues 281–309 of the regulatory segment of CaMKII alpha) (peptide, UniProt P11798 281-309, looked up)
peptide: MHRQETVDCLKKFNARRKLKGAILTTMLA
notes: also called CAMKII-R; CaMKII peptide; source: synthetic peptide (University of Minnesota Peptide Synthesis Services)
binding result [4]: binds
